Experimental data taken from PMC4856084, “The SEB-1 Transcription Factor Binds to the STRE Motif in Neurospora crassa and Regulates a Variety of Cellular Processes Including the Stress Response and Reserve Carbohydrate Metabolism”.

Target: GST-SEB-1 (Neurospora crassa, UniProt Q7SH58 1-575)
Experiment: competition
Conditions: protein: recombinant; tags: N-terminal GST (pGEX-4T1); blunt

B1: STRE1 oligonucleotide (18 bp) (dsDNA)
DNA 1: GGGATCCCCCTTGAATAC
DNA 2: GTATTCAAGGGGGATCCC
binding result: binds
